Results on one molecule are retold here after PMC9861681, “Preparation, Purification and Characterization of Antibacterial and ACE Inhibitory Peptides from Head Protein Hydrolysate of Kuruma Shrimp, Marsupenaeus japonicus” (Molecules, 2023).

Experiment [1] deals with T1, angiotensin I-converting enzyme (ACE, EC 3.4.15.1) from rabbit lung (rabbit, UniProt P12822 34-1310).
T1 sequence (looked up): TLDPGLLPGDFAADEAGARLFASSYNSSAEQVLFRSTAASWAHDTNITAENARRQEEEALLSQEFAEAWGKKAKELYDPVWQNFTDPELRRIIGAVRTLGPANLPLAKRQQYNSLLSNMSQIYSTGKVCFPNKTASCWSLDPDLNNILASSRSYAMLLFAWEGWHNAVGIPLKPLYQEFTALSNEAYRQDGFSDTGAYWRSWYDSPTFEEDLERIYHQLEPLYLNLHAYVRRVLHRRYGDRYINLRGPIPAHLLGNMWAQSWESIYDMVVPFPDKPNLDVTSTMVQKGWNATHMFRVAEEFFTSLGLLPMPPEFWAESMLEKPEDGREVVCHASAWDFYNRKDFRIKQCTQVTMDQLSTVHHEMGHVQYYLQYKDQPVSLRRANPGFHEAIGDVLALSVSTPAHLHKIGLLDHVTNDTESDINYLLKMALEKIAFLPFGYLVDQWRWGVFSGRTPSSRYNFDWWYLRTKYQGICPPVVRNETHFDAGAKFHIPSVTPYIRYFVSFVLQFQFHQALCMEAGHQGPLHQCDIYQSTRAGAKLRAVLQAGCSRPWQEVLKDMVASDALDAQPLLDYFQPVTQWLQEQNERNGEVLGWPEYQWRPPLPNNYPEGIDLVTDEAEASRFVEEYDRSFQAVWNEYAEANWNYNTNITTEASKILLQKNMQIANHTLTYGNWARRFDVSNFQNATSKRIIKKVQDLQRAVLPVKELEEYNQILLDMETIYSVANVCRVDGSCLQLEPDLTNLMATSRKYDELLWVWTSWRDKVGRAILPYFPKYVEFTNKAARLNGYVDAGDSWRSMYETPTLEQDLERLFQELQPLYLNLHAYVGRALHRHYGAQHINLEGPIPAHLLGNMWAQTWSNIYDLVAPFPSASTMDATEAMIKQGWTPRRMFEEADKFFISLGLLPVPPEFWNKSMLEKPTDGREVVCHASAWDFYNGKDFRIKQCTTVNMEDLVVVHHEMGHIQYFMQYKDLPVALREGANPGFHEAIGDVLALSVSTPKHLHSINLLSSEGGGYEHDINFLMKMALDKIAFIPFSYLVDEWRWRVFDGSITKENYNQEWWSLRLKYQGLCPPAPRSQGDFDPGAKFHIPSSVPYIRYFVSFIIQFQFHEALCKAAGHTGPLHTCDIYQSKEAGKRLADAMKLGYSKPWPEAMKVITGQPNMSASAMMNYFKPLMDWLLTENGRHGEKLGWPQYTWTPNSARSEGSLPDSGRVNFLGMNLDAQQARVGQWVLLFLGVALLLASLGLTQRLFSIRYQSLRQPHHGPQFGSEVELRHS
Briefly: cell-based or functional assay.

Experiment [2] has as its target T1, angiotensin I-converting enzyme (ACE, …). Briefly: cell-based or functional assay. This is another data set of the same source.

For the molecule ARL [ACE inhibitory peptide Ala-Arg-Leu/Ile (ARL/I)], the “IC50 of ACE inhibitory activity, calculated from the molecular mass of ARL/I and Table 2” value in experiment [1] was 126 µM. Besides, the “IC50 of ACE inhibitory activity (HHL substrate, hippuric acid at 228 nM)” value in experiment [2] came out at 45 µg/mL.
